Reference: the supplement of paper PMC12764529
± gives the half width of the 95% confidence interval.

How the values were obtained:
[1] = folding stability dG unfold (combined trypsin and chymotrypsin); higher = more stable
Summary of the method: (§1)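 Unfolding free energy was derived, per protease or combined, by relating Bayesian-fitted K50 values from sequencing counts to a sequence-predicted unfolded-state K50 and a shared folded-state K50. The underlying digests exposed cysteine-free mini-proteins under 80 residues, in a PA-tagged cDNA display construct, to trypsin and chymotrypsin at 11 threefold-diluted concentrations and to a no-protease condition. A filter kept only designs with AlphaFold2 dimer inter-PAE above 15.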

[2] = folding stability dG unfold from trypsin proteolysis; higher = more stable
Summary of the method: as §1

[3] = folding stability dG unfold from chymotrypsin proteolysis; higher = more stable
Summary of the method: as §1

Sequence | folding stability dG unfold [1] | folding stability dG unfold [2] | folding stability dG unfold [3]
SAGGSAGGPLENDIPIPLTVPLPGPGTAELFLLPSTGEVLALVEGKPYLVSLEDLKDGVFRLGLSAGGSAGG [r6_939_TrMRF] | 0.576 ± 0.12 kcal/mol | -0.577 ± 0.36 kcal/mol | 0.989 ± 0.17 kcal/mol
SPVSLSFTTAPSGLPTVTSASQPADGSLLLTLTEPATGATTTLTLPPGLPPGVERTVTLPGPDGATTLTVGS [r1_43_JUSTAS] | 0.364 ± 0.073 kcal/mol | -0.678 ± 0.19 kcal/mol | 0.723 ± 0.11 kcal/mol
SAGGSAGGSAGGGMSVKVTVKDPVNGTTSVYELSVPPGVSNVVINVKTPDNSTVTKVTLESAGGSAGGSAGG [r7_687_JUSTAS] | 1.11 ± 0.11 kcal/mol | 0.754 ± 0.09 kcal/mol | 1.28 ± 0.034 kcal/mol
SALPLPSSAKVELEWELVGVDPGSKGAKVYYRRTLKVTFPTGSLTVTYLVEYDPETGTFSWSITSVSPESAG [r14_293_TrMRF] | 5.38 ± 0.21 kcal/mol | 4.1 ± 0.19 kcal/mol | 5.65 ± 0.095 kcal/mol
SAGMILTIRPEDGSEEIIPVPKEDIEKLIEDLEKKGIKVLSMTTSPDGVSTIPTQYPDGKKMTITVHLDSAG [r5_645_JUSTAS] | 0.677 ± 0.16 kcal/mol | 0.707 ± 0.098 kcal/mol | 0.677 ± 0.22 kcal/mol
SAGGSPPFRIKIDEIEILPNGIIQVTFKIDNGWPMTILIQMDPDGKVTIEIQFPGNGQPFEFELPISAGGSA [r2_361_TrROS] | 3.27 ± 0.23 kcal/mol | 2.56 ± 0.14 kcal/mol | 3.52 ± 0.07 kcal/mol
SAGGSKKVKIKITKIEIFPNGTIKVTVKNEDGSEVTITITKNKDGKYKIKIKNKKTKKIFEFEIPLSAGGSA [r2_361_TrROS_Hall] | 2.8 ± 0.22 kcal/mol | 2.22 ± 0.089 kcal/mol | 3.1 ± 0.06 kcal/mol
SAGGSAGGSAGGIKKGDKIKIVKVKVEKRYDKDGKLVEERIVSIEEEEIEVPSLEDLLKASAGGSAGGSAGG [r7_439_TrROS_Hall] | 0.654 ± 0.25 kcal/mol | 0.732 ± 0.14 kcal/mol | 0.739 ± 0.06 kcal/mol
SAGGSAKKKVTITVEKKGDKYLVTIEVDGKTVVIEVPKDTTIEEIAAALPPGAKIKEIKVVKAEELSAGGSA [r15_1058_TrROS_Hall] | 1.16 ± 0.067 kcal/mol | 0.716 ± 0.034 kcal/mol | 1.33 ± 0.031 kcal/mol
SAGGSAKVKIEVSIEVSEDGTITITVRITNENGEELTVTITIKLPPAPTVVYDSEEERKKALEALASAGGSA [r15_1018_TrROS_Hall] | 2.38 ± 0.26 kcal/mol | 2.9 ± 0.14 kcal/mol | 2.2 ± 0.19 kcal/mol
SAGGSAGGSAGIWIPIKDPKEAVDYIQEWFHKKGGYDINIEPTEVYPDGWVRVEINIEPKSAGGSAGGSAGG [r17_430_TrROS] | 1.06 ± 0.26 kcal/mol | 0.151 ± 0.1 kcal/mol | 1.26 ± 0.18 kcal/mol
SAGGKEKVKIKIKIIDKKTNKVYEAEATFDKETGKVTITFPDGSKITFDLKTNKLYIEKDGKIIEIESAGGS [r16_743_TrROS_Hall] | 3.19 ± 0.28 kcal/mol | 2.66 ± 0.27 kcal/mol | 3.53 ± 0.091 kcal/mol
SAGTELELEAEAEVLFPELGTRARVRVRARVRPTEDEVEVELEVEAEFEPLPLVPPIVSPEENPELAEGSAG [r14_435_TrMRF] | 3.08 ± 0.17 kcal/mol | 3.19 ± 0.12 kcal/mol | 2.7 ± 0.14 kcal/mol
SAGGSAGGSAGMTLIYKDPETGKYYIVDFEESGPERVFEVDSLDEAEEIAEKLGRKLDPLSAGGSAGGSAGG [r11_1049_TrMRF] | 2.31 ± 0.055 kcal/mol | 1.39 ± 0.029 kcal/mol | 2.591 ± 0.018 kcal/mol
SASSSFTLPGLKLEVETQKVSTFPTPDGTPVVLYETTIHFLEVPESLRAEGKPLSLESSVKKLKVVPLPSAG [r14_942_JUSTAS] | 0.391 ± 0.2 kcal/mol | 0.277 ± 0.14 kcal/mol | 0.453 ± 0.33 kcal/mol
SAGGSAGGSPVVAIRAKSREELLAALEALLPPGQKLTPEQRQQLVDTLLANLDVKPGDTILVRSAGGSAGGS [r12_983_TrROS_Hall] | 0.992 ± 0.12 kcal/mol | 1.07 ± 0.064 kcal/mol | 0.921 ± 0.034 kcal/mol
SMRVVLVRPVPPELKEAELELRLPLPDGSEVEVKAETGEDFVVVTIELDDESAAEAVVEELEKLLEELLGSA [r9_790_TrMRF] | 1.13 ± 0.053 kcal/mol | 0.926 ± 0.019 kcal/mol | 1.17 ± 0.034 kcal/mol
SAGMDVKELAKEAMEKYPPGDKEIEFEIPVGPRPFKVKIDYEPDPENGKPRPKITIENPDNGKKTEFTFSAG [r5_236_TrROS] | 0.11 ± 0.17 kcal/mol | -1.07 ± 0.74 kcal/mol | 0.61 ± 0.19 kcal/mol
SAGGSAGVLEAVVFNPETGTFSVIPAAVLEKAFAANPADTELTFTLKDKPVKVFVFPGPGLAVVTGSAGGSA [r15_350_TrMRF] | 1.45 ± 0.053 kcal/mol | 1.14 ± 0.018 kcal/mol | 1.56 ± 0.061 kcal/mol
SAGGSMAEPGPMNMTLSFDGIEKEFSVEITVRKRPDGTEVLELRLPDGVPLTLPAAEAAKIVDMSGSAGGSA [r2_297_JUSTAS] | 0.764 ± 0.051 kcal/mol | 0.549 ± 0.023 kcal/mol | 0.879 ± 0.036 kcal/mol
SAGGSAGGSPIVVDSPEDIEKAIEEAIASGAKSIVEVGPNRVRVVFVIPGEPKVFVLELPLNGSAGGSAGGS [r12_368_TrMRF] | 1.79 ± 0.11 kcal/mol | 1.42 ± 0.051 kcal/mol | 1.93 ± 0.092 kcal/mol
